The values below come from article PMC5207764.

This experiment deals with Vibrio cholerae major pilin TcpA with a His181Ala substitution, assembled in purified TCP^H181A pili (V. cholerae).

B1: Vibrio cholerae minor pilin TcpB (natural protein)
chain: MRKYQQGVGLLEAILASAVLGMALVAAGSYYKREAELMIKSSNAFDVIELSSQIQRYASLSKINNRTNPILKDNKAKEFKDADLKWLKLENCLTAGDVPTTGNNNDLQDQFIACDADYRKGDLSYFGSQFEFSTYVHPSNPEIQRQIKQVVSYFQYRGMERAFIGDAAGYVISEAKKKGFSAQDYRIVLIEPDRVGYFESNVISYEEFIENPSARENFLLKATKDRTLALAVSLAQTGEIAMQRDGSVAFLEDTELCWDTAAGSAKSCLSVRYDTVGNKTELDLKQIDVVSAKGLSFESDGKTKTPVVSTYETFQDGGRAKTINAIECPTGLNNRFAAVVSSFSTAGQNANFSSESAKDSQGTTQKDGSKGPHALLSGISLNWTLTNKVWDVTASIGIESGILPTSGIDSGSLLRNPKSLSFIAFQWCEN
As to B1, the molar ratio TcpA:TcpB in purified pili (TcpA per TcpB) came out at 7000.
